Experimental findings from paper PMC7708082 are described below.

This test deals with translesion synthesis (TLS) polymerase ι (human (endogenous in K562)) (UniProt Q9UNA4). The test can be described thus: proximity ligation.
Chain of UniProt Q9UNA4 (Q9UNA4 whole entry): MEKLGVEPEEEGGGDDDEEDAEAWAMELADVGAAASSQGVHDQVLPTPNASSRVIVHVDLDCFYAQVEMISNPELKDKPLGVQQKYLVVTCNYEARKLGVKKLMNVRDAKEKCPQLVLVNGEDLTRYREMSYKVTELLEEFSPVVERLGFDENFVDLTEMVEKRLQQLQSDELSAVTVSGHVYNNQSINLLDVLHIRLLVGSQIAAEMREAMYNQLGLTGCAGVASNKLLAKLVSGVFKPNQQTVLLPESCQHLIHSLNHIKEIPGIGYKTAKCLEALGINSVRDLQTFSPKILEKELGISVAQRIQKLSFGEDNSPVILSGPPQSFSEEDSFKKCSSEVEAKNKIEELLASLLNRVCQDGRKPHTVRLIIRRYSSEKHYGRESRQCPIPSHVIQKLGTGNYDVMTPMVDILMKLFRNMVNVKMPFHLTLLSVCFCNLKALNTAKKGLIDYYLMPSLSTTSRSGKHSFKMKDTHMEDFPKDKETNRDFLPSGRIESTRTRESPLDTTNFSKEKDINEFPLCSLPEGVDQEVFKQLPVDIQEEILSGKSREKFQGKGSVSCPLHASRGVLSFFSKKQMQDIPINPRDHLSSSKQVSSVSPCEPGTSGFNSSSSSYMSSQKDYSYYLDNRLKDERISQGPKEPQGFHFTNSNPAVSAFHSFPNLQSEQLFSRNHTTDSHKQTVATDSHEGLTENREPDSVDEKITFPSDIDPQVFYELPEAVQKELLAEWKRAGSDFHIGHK

Take “p53(22Q/23S) (from UniProt P04637 1-393) (natural protein)”: the reduction in PLA-foci numbers against p53(WT) came out at 64%.
